The target in the data set is T1, FilR1 (Methanosaeta harundinacea 6Ac) (UniProt G7WMP6).
T1 sequence: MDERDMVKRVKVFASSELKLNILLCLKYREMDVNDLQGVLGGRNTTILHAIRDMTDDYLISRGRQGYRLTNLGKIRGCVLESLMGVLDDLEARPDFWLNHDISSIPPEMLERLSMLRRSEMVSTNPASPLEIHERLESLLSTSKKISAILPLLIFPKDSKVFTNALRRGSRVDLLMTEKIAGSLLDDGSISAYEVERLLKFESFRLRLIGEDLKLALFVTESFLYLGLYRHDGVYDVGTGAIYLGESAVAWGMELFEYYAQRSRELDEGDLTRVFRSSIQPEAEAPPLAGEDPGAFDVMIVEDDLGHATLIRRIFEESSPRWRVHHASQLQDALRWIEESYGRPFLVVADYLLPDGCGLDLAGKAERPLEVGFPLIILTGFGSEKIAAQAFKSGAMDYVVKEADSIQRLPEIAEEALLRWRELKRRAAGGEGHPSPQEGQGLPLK
Description: EMSA. The settings on record: EMSA: 10 mM Tris-HCl pH 8.0, 50 mM KCl, 10 mM MgCl2, 1 mM DTT, 2.5% glycerol, 1% NP-40, 0.5 mM EDTA, 1 ug/uL poly dI-dC, 10 fmol (0.5 nM) biotin probe, 20 uL …. On the technique in general: In EMSA bound probe runs differently from free probe, usually more slowly.
As for “AAACCGCCCTCCTCTCCAGCCTCTCACCATTTCAACCTGGCGGATTGAGTTCAATCTAAATGGATTTTTATCAATTTAATTGGATATCCTCCCATCAAAACATAATCGGTAATTTTTAGCATTAAATCACCGTCACGATTTCACAAACTTAAATGTATATGTGTTCTAATCAATAAACTAAACAATAATATTCTCATTATACTAGTTGCCAATCCGAAAGGGTTTTATCTTCTACATGCGACTACCGAGCAAACCAGAGTACAGAAGGAGGTCAAGC (double strand) [cdhBEA promoter]”, the binding entry was “no binding”.

As to “AACCCCCATAAATGATAGATCCGAAAGTAATTAAATAAATCGGTCGGTCTTCGGCCGCGGGTGGAACCAGAGGATCCCATCAGCTATGAGGGGGATCGTCAGGTGGACCGCCCTTTGAAGGATCATCCATCTCCTGAGACCTCCAGACCCCGGCGAGATGGCCGTTAGTCTCCATAAGCTCTCTCCAGCTGCCGGATTCGACAAATCGCCCCCTCTCCAGGACCTGGATCATTACCGAGGAGAGGTTTTGCCC (double strand) [Pomp]”, the binding result is “binds”. For the sequence “AACGGGTTCCATCTCGATATGATCAAGGGGTGGGGGGTTTATTAATAGGTTGAGGTCCCCCTCTCGAGGCCCGGAAAGGGCAAGAGATCCCCCGATAGATTTTTATCGACCGCATATTATCGAATTTTCCCCCGGCAGAGAGGCGGAGGCTTTATACCATTTTGGCATATCGAGGGTGAGTGGGTGAATCGGCATGGCGGAG (double strand) [Pacs1]”, the binding entry is listed as “binds”.

Turning to “AATCCACCTAAACTCACCCATATTATGCCAGTTTGAAGCCTTTTAGGACCGACCGCATCACTGCTTAGCGGTAGTGATGCTAATCGATTTTCTCATAAACCTTTTATATCAGTACCTTGTGTTTAGCTCTTACGGCTAATGGAGGTAAAAAATGAGCGGCGAATTGGTG (double strand) [fpo promoter]”, the binding entry is listed as “no binding”. With “ACCCGTTTGACCATATCCCTTTCGTCCATGTTGAGGTCCCCCTCATTTTAAGGGCCTAAATGGCGTAGATCCACGAAAGCCGGGAGCGATTCGCGATCCGACGGAACAACTCCCCAGTTATCGGCTTGATATCAGCCTCCACCCTCCAATTTCGCGAGCCCATCTCCTCGGCTTGAGTTTTTTCCTTGATTTCGCCGTATAAGTAGCTTCCGACGATCCCGATGCTGATAGAAGCTCTGAAGTTCTCATCGTACCG (double strand) [PfilR1 (filR1 promoter)]” the entry was “binds”; with “AGATGAAACCAGAATTATCGTTGAAGATCCCTCCCTCCGAAGATCTCCGATGGATCTCATCGATGGAACCATCTGAGGAGGCGGATCGTCGTCACCGGTTCCCCACCCGCGATGGACAATTATTCGTTATACTCGGAGGGTTATCTTCATAAACCACGGACGGATGACAGTAAGGCAGGTGCGAGGCCTTCATCACCCAGTGGACGGAGAGACAATCTCGTTTTGGAGGAGGTTGAAAGGAAG (double strand) [PfilI-R2 (filI-filR2 promoter)]”, “binds”; with “CCATCCCTCTCCCTCAAGATATAGGAGGGAAAAGGTGGACGCTCACTTGGCGAGCGTCACCTTCTCGATGGTAACCTTGGCGTCCTTGAGGATCAGCTTGATCCCGCCCGCTCCGCCCGCCGACATGGCAAAGGCGGGGGCAGCTCCTGCCGCCGGGGCTGCTGCTGCGGCCGGAGCCGCCGCGGCAGGTGCTCCAGGTTCCTTCGACTTCAGCTTCAGTGACAGTTTCTTGGCCATTCCTATAACCTCCTACACCCTCAAATACAGAGATACTATAAATTC (double strand) [cdhCD promoter]”, “no binding”. With “CCATTAGGAGCCGTCGATTCAGCTGTTTTTGATTTTCAGGATTTATACCCGGCCGATATTCCATATTTTGGAATCTATAATGATTAAAAGGCCACTAACCTTATTAATCATGAAGATTACTAATCGACATGGTCCAGTCGAGCGTTCTCTATAGACAAACGGAGAGAATGCGTGGCAGATTCTGGTTTGAAATCTCCGTATTGGAGCTGGTATCTGCCCGGGGATCTGGGGAGAGAAGAGTGCAAAATATTCGATCTTTGATTAAGGAGGGTTGAAATTGGCT (double strand) [Pacs4]” the entry was “binds”. On to “GCTAACCATGTCCATTTGCTCTCCTCCTTTTTAATTCTTGCCAAATCATAGTAATCTATGAAAAATTTGGCCAGTAACGTACTGACTATCGGTTACTGGACTTATAAAGCTTTCGAAATGGAAATGAAAGCCCCATTTTTGTTTTTTGTCCCGGTTTTAGTGAGCCCGAAAGATCTGAAATCCCCAAATAAAAGCCTGAAATATAAAAAAAACAAGGAAGAACAGTTTGGGGCGAA (double strand) [Pmtr]”, for which the binding result is recorded as “binds”.

“GGTCGGAGAGGCTGAGGGCGATCCCCGTCGTCGTCCTCACCACCTCCACCAGCGACGACGACCTCCGGCGGGCCTACTCCAACCACGTCAACAGCTACCTCATCAAGCCCCTCAGCTTCGAGGACCTGAAGCGGACCGTCGAGGAGATCAAAGAGTACTGGCTTGGATGGAACCGCTCCCCCGGACCCGCGTGAAAGACCCCAGAGGTGAGCGAAACCGAGGCCTTCACCCATGACGCTGCGCC (double strand) [UfilI (internal fragment of filI)]”: the binding entry was “no binding”.

Values taken from PMC3991700.
